Assay results from US20060026702A1, “Phosphoinositide 3-kinase mediated inhibition of GPCRs” (DUKE UNIVERSITY, priority 2002, published 2006).

Columns and labels:
[1] = tested on: Gβγ subunits of G-protein; experiment: Pull-down with purified Gβγ; type: binding; conditions: GST-HEAT beads with purified Gβγ
Protocol: Subsequently, 10 μg of purified Gβγ was added to either βARK1 immobilized beads (5 pg), or the GST-HEAT fusion protein beads (5 μg), and gently rocked for 45 min at room temperature. Beads were spun down, washed in binding buffer X2 and resolved by gel electrophoresis. The presence of Gβγ was detected by immunoblotting with an antibody directed against the Gβ subunit. Purified Gβγ and βARK1 were gifts from Dr. Robert Lefkowitz.
Purified βARK1 and GST-HEAT fusion protein immobilized on sepharose beads were incubated with purified Gβγ. The beads were washed and recovered proteins were analyzed by SDS-PAGE followed by immunoblotting with a Gβ polyclonal antibody. […] Purified Gβγ was loaded as a positive control.

βARK1 = molecular target: T1, βARK1 (Bos taurus, UniProt P21146); experiment: Co-immunoprecipitation and GST pull-down with purified βARK1; type: binding; conditions: sepharose beads, versus GST alone
T1 construct: gift from Dr. Robert Lefkowitz
T1 sequence (P21146 1-689): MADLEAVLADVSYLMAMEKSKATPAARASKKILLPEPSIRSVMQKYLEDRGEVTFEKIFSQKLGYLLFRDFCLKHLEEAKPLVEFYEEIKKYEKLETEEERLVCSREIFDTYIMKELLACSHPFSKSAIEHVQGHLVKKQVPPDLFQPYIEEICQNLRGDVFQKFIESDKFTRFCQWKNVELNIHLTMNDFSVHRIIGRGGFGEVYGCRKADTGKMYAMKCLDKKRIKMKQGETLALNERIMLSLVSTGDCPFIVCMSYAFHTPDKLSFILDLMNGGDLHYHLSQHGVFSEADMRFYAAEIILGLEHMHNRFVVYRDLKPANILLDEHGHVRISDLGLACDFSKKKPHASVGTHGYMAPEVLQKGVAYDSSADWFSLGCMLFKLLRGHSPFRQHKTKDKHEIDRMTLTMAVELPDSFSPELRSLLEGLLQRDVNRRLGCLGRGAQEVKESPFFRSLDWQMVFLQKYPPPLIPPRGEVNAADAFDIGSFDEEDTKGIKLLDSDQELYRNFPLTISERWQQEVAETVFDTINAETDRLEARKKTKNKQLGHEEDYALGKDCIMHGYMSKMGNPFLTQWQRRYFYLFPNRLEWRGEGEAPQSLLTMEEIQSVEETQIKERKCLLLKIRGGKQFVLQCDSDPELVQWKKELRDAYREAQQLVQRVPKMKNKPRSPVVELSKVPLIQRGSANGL
Protocol: GST Fusion Protein Expression and Pull-down Experiments—Plasmid DNAs were transformed in Escherichia coli BL21 cells. Overnight cultures were grown in LB medium supplemented with ampicillin (100 μg/ml), diluted to an A600 of 0.2 in the same medium and grown for another 1 hr at 37° C. Cultured cells were then induced with 0.1 mM isopropyl-1-thio-β-D-galactopyranoside for 2 hr. Cell were then pelleted, washed once with 1× phosphate-buffered saline and resuspended in 1× phosphate-buffered saline containing 1 mM phenylmethylsulfonyl fluoride, 2 mg/ml lysozyme and incubated for 15 min on ice. Cells were lysed by adding Triton X-100 1%. Solublized cells were incubated with DNase (300 units) for 15 min on ice and centrifuged at 13,000 rpm for 10 min.
Glutathione-Sepharose beads were added to the supernatant and gently agitated at 4° C. for 2 hr. Beads were washed three times with ice cold 1×PBS containing 1% Triton X-100 followed by three washes with cold PBS without detergent. Protein concentration was determined using a DC protein assay kit (Bio Rad), and the integrity of the fusion protein was analyzed by SDS-polyacrylamide gel electrophoresis and Coomassie staining.
The beads were spun and washed three times with binding buffer followed by three washes with binding buffer without detergent. The beads were resuspended in SDS gel loading buffer and resolved by gel electrophoresis, immunblotting and detection was carried out described later.
FLAG-HEAT and PI3KΔHEAT proteins were immunoprecipitated from cell extracts using monoclonal FLAG and HA antibodies respectively, fractionated by SDS-PAGE and analyzed by immunoblotting with βARK1 monoclonal antibody. […] Levels of expression of HEAT and PI3KΔHEAT proteins were similar (FIG. 8B, lower panel).
To investigate whether there was a direct physical interaction between the HEAT domain of PI3K and βARK1, GST-HEAT fusion protein containing 535-732 amino acid residues of PI3Kγ was produced, which including the entire HEAT domain and flanking upstream 10 amino acids and downstream 7 amino acids. […]

binding of purified βARK1 to immobilized fusion protein (βARK1): bound specifically
B1: GST-HEAT: GST fusion protein containing 535-732 amino acid residues of PI3Kγ, including the entire HEAT domain (protein)
chain: HPIALPKHQPTPDDRVRAEMPNQLRKQLEAIIATDTAEDKELLWHFRYESLKHPKAYPKLFSSVKWGQQEIVAKTYQLLARREVWDQSALDVGLTMQLLDCNFSDENVRAIAVQKLESLEDDDVLHYLLQLVQAVKFEPYHDSALARFLLKRGLRNKRIGHFLFWFLRSEIAQSRHYQQRFAVILEAYLRGCGTA
modifications: left off: a dimerising Fc or GST
notes: GST fusion protein containing 535-732 amino acid residues of PI3Kγ, including the entire HEAT domain
association of Gβγ [1]: no association
